This note sets out measurements from article PMC6443190, “Regulation of anthocyanin accumulation via MYB75/HAT1/TPL-mediated transcriptional repression” (PLoS Genetics, 2019).

T1: MBP-EGL3 (Arabidopsis thaliana, UniProt Q9CAD0 1-596)
T1 construct: EGL3, Arabidopsis thaliana, At1g63650; pMAL-C2X
T1 sequence (looked up): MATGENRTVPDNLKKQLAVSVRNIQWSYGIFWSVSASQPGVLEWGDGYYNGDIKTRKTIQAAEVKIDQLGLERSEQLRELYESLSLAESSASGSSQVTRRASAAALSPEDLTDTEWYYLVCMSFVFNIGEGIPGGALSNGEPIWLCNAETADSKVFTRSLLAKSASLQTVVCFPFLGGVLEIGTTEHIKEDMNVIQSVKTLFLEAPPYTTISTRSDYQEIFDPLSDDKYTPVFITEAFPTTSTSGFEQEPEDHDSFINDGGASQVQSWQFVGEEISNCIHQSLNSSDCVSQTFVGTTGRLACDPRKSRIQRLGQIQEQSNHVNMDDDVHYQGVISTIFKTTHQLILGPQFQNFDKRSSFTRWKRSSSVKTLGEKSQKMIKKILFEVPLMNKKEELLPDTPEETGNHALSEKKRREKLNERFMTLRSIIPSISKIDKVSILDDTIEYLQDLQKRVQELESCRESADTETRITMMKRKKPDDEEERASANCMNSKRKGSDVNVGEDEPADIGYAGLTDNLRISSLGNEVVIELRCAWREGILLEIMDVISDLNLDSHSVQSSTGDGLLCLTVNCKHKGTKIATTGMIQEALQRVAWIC

T2: MBP-TT8 (Arabidopsis thaliana, UniProt Q9FT81 1-518)
T2 construct: TT8, Arabidopsis thaliana, At4g09820; pMAL-C2X
T2 sequence (looked up): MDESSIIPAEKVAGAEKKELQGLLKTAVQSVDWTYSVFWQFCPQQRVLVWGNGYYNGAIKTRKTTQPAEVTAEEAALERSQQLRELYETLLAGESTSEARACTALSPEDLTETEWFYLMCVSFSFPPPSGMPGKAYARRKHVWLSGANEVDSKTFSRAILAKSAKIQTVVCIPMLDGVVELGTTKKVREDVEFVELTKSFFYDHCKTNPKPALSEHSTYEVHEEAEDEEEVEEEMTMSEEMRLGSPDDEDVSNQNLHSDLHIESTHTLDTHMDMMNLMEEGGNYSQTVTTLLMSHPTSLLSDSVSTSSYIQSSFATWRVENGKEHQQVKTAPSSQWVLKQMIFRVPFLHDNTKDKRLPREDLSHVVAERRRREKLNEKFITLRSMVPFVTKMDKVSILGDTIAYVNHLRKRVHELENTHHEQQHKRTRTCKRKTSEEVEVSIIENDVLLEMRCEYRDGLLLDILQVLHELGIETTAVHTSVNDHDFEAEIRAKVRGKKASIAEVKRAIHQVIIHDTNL

T3: HIS-HAT1 (Arabidopsis thaliana, UniProt P46600 1-282)
T3 construct: HAT1, Arabidopsis thaliana, At4g17460; full-length, in pET28a; pET28a; also called full-length HAT1
T3 sequence (looked up): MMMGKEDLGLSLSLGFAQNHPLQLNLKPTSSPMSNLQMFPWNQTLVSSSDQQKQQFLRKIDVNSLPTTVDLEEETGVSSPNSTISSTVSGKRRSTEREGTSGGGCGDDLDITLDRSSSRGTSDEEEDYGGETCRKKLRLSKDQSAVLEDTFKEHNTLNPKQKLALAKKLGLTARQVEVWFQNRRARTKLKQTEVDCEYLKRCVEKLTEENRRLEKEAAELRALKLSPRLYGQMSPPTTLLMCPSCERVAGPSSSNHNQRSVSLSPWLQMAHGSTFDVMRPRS

T4: MBP-HAT1 (Arabidopsis thaliana, UniProt P46600 1-282)
T4 construct: HAT1, Arabidopsis thaliana, At4g17460; full-length, in pMALc-B; pMALc-B; also called full-length HAT1
T4 sequence (looked up): T3 sequence (looked up)

B1: HAT1 C-terminal fragment (pull-down fragment) (domain or fragment, Arabidopsis thaliana, UniProt P46600 234-282, looked up)
chain: SPPTTLLMCPSCERVAGPSSSNHNQRSVSLSPWLQMAHGSTFDVMRPRS
notes: HAT1, Arabidopsis thaliana, At4g17460; also called C-terminus of HAT1; not shown: 6xHis (inferred from the set-up of the methods)
B2: HIS-MYB75 (natural protein, Arabidopsis thaliana, UniProt Q9FE25 1-248, looked up)
chain: MEGSSKGLRKGAWTTEEDSLLRQCINKYGEGKWHQVPVRAGLNRCRKSCRLRWLNYLKPSIKRGKLSSDEVDLLLRLHRLLGNRWSLIAGRLPGRTANDVKNYWNTHLSKKHEPCCKIKMKKRDITPIPTTPALKNNVYKPRPRSFTVNNDCNHLNAPPKVDVNPPCLGLNINNVCDNSIIYNKDKKKDQLVNNLIDGDNMWLEKFLEESQEVDILVPEATTTEKGDTLAFDVDQLWSLFDGETVKFD
notes: MYB75, Arabidopsis thaliana, At1g56650; full-length, in pET28a; pET28a; also called full-length MYB75
B3: MBP-MYB75 (natural protein, Arabidopsis thaliana, UniProt Q9FE25 1-248, looked up)
chain: B2 chain
notes: MYB75, Arabidopsis thaliana, At1g56650; full-length, in pMAL-C2X; pMAL-C2X; also called full-length MYB75

Details in all cases: both partners purified
The target in experiment [1] is B3. Briefly: pull-down; Ni-NTA beads with 5 ug HIS protein incubated with 5 ug MBP protein; 150 mM NaCl, 20 mM Tris, 0.2% Triton X-100, pH 8.0, 4 C, 2 h; anti-MBP blot.
Experiment [2] addresses T1, MBP-EGL3. Briefly: pull-down; competitive HIS pull-down: 5 ug MBP-TT8 or MBP-EGL3 mixed with 5, 10 or 20 ug HIS-HAT1, on Ni-NTA beads with 5 ug HIS-MYB75; 150 mM NaCl, 20 mM Tris, 0.2% Triton X-100, pH 8.0, 4 C, 2 h; anti-MBP blot.
The target in experiment [3] is T2, MBP-TT8. The experiment is described as above.
The target of experiment [4] is T3, HIS-HAT1. Described as above.
For experiment [5], the target named is T4, MBP-HAT1. Kind of experiment: pull-down; Ni-NTA beads with 5 ug HIS protein incubated with 5 ug MBP protein; 150 mM NaCl, 20 mM Tris, 0.2% Triton X-100, pH 8.0, 4 C, 2 h; anti-MBP blot.
Experiment [6] concerns the target T3, HIS-HAT1. The description is as above.

In the case of B1, the binding result in experiment [1] is reported as “binds”.

B2: the binding result in experiment [2], in experiment [3], in experiment [4] and in experiment [5] was “binds” throughout.

For the molecule B3, the binding result in experiment [6] is listed as “binds”.
